Reference: doi:10.1101/2024.01.16.575844

Target: C3b (human) (UniProt P01024)
Test: radioligand binding

Chain of UniProt P01024 (P01024 whole entry, looked up): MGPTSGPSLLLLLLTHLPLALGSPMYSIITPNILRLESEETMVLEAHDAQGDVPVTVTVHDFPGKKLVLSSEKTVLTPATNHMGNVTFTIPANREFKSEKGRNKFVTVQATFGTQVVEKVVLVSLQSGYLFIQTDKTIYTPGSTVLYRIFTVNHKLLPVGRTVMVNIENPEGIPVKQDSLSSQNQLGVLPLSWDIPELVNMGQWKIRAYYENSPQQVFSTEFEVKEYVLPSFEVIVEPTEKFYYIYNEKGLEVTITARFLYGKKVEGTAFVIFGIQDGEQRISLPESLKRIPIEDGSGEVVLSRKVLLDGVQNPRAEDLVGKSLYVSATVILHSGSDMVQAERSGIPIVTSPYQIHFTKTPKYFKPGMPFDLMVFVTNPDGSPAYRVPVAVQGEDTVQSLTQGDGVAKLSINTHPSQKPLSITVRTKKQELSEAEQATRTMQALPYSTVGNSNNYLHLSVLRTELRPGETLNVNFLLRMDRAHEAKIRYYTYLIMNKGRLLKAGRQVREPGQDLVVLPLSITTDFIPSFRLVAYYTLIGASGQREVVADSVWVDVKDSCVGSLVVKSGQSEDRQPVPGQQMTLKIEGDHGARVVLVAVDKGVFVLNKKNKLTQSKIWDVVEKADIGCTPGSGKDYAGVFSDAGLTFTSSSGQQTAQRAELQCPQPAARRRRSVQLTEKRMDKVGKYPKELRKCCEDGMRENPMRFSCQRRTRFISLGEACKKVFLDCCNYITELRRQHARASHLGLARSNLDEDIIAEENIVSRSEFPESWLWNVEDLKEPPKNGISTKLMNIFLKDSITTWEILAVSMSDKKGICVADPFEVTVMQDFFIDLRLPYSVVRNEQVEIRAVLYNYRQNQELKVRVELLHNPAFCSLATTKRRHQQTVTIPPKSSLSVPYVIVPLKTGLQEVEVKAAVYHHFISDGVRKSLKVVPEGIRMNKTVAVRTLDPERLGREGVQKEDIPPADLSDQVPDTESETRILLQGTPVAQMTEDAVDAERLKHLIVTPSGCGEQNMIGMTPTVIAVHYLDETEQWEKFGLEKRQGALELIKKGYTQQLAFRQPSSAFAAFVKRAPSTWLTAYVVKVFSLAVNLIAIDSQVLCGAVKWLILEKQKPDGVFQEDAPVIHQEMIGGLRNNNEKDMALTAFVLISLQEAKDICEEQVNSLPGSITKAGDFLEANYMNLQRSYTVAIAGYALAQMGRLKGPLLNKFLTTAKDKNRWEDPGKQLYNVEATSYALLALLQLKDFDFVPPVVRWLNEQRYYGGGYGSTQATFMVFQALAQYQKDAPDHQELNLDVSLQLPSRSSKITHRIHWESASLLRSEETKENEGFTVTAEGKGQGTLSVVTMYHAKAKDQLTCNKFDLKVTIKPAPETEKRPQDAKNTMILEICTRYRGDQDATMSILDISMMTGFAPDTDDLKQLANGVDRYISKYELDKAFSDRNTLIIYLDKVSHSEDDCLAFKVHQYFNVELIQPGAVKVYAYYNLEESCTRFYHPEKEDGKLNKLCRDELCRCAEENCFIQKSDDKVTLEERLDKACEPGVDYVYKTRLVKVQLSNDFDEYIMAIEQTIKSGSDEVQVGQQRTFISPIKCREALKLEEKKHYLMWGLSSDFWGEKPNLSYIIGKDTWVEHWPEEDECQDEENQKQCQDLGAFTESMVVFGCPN

binding in 5 mM EDTA as percent of that in 0.2 mM Mg2+: 60 to 70%
percent by which binding in 5 mM Mg2+ exceeds that in 0.02 mM Mg2+: 50%
percent inhibition of 125I-labelled factor B binding to C3b-thiol Sepharose: 100%
Substance: complement factor B (natural protein)
